Measured values as given in US20180066029A1.

Legend:
Assay in all cases: CIDOP with next-generation sequencing, recovery of peaks
[1] = target: nucleosomes having both H3K9me3 and H3K36me3 (H3K36me2/3)
[2] = target: nucleosomes having only H3K9me3
[3] = target: nucleosomes having only H3K36me3
[4] = target: nucleosomes having neither H3K9me3 nor H3K36me3

percent of genome regions of this state detected by PM [1]: 80.9%
percent of genome regions of this state isolated by PM [2]: 6.2%
percent of genome regions of this state isolated by PM [3]: 6.66%
percent of genome regions of this state isolated by PM [4]: 0.04%
Substance: artificial protein PM (PWWP domain of Dnmt3a, naturally occurring linker of 21 amino acids, chromodomain of MPP8, N-terminal GST tag) (designed binder)
